Results on 2 molecules are retold here after paper PMC8559680, “Dynamics in Fip1 regulate eukaryotic mRNA 3′ end processing” (Genes & Development, 2021).

B2: Fip1_(226) (Fip1 residues 1–226), purified from E. coli (domain or fragment, yeast, UniProt P45976 1-226, looked up)
chain: MSSSEDEDDKFLYGSDSELALPSSKRSRDDEADAGASSNPDIVKRQKFDSPVEETPATARDDRSDEDIYSDSSDDDSDSDLEVIISLGPDPTRLDAKLLDSYSTAATSSSKDVISVATDVSNTITKTSDERLITEGEANQGVTATTVKATESDGNVPKAMTGSIDLDKEGIFDSVGITTIDPEVLKEKPWRQPGANLSDYFNYGFNEFTWMEYLHRQEKLQQDYNP
notes: Isotopically labelled (15N, 13C, 2H) where it is the observed species in NMR; cloned in pET28a+; also called Fip226; source: E. coli BL21 Star, purified (Ni-NTA, TEV cleavage, Superdex 75); not shown: His tag, N-terminal, cleaved

The target in assay [1] is B2. In words: NMR titration; 15N-labelled Yth1 construct with unlabelled Fip1_(226), equimolar, 75 µM; chemical shift perturbations and line broadening; 700 MHz, 298 K, 50 mM HEPES (pH 7.4), 150 mM NaCl. As to conditions: both partners purified.
For assay [2], the target named is Yth1ZF4 (Yth1 zinc finger 4) (yeast) (UniProt Q06102). Description: ITC; MicroCal iTC200, 25°C, 50 mM HEPES (pH 7.4), 150 mM NaCl; single class-binding site model.
Assay [3] concerns the target T1, CPFΔFip1 (recombinant CPF lacking Fip1; Pap1 also absent) (yeast, UniProt Q06632 1-1357; P42841 1-465; Q06102 1-208; Q12102 1-859; Q06224 1-779; P35728 …).
T1 construct: Cft1, yeast; as m20; Pfs2, yeast, untagged; as m19; Yth1, yeast, untagged; as m12; Cft2, yeast; as m21; Ysh1, yeast; as m22; Mpe1, yeast; as m23; Pta1, yeast; as m24; Ssu72, yeast; as m25; Pti1, yeast; as m26; Glc7, yeast; as m27; as m28; Swd2, yeast; as m29; Twelve subunits: Fip1 was omitted from the CPFcore construct and Pap1, though co-expressed, was absent from the purified complex; source: …
Description: mass photometry; Refeyn One iSCAT; samples diluted to 100 nM in 50 mM HEPES (pH 7.4), 150 mM NaCl. As to conditions: both partners purified.

B1: Yth1_(ZF45C) (Yth1 residues 118–208) (domain or fragment, yeast, UniProt Q06102 118-208, looked up)
chain: ASKIPKCENYEMGFCPLGSSCPRRHIKKVFCQRYMTGFCPLGKDECDMEHPQFIIPDEGSKLRIKRDDEINTRKMDEEKERRLNAIINGEV
notes: Yth1, yeast, zinc fingers 4 and 5 and the rest of the C-terminal region, residues 118–208; 15N- or 13C,15N-labelled where it is the observed species in NMR; cloned in pGEX6P-2; also called entire C-terminal half of Yth1; source: E. coli BL21 Star, purified (GST resin, 3C cleavage, Superdex 75); not shown: GST, N-terminal, cleaved
As for B1, the binding result in assay [1] is given as “binds”.

As a reminder, the Kd is a measure of binding affinity in units of concentration. The molecule B2 showed a Kd in assay [2] of 240 nM. In assay [3], the binding result is reported as “binds”.
